Data set [1] has as its target T1, CYP6P3 (Anopheles gambiae, UniProt Q8T632).
T1 construct: recombinant, pCWori+ vector, E. coli membranes co-expressing An. gambiae CPR; cytochrome b5 added in metabolism assays; with NADPH--cytochrome P450 reductase
T1 sequence (Q8T632 1-509): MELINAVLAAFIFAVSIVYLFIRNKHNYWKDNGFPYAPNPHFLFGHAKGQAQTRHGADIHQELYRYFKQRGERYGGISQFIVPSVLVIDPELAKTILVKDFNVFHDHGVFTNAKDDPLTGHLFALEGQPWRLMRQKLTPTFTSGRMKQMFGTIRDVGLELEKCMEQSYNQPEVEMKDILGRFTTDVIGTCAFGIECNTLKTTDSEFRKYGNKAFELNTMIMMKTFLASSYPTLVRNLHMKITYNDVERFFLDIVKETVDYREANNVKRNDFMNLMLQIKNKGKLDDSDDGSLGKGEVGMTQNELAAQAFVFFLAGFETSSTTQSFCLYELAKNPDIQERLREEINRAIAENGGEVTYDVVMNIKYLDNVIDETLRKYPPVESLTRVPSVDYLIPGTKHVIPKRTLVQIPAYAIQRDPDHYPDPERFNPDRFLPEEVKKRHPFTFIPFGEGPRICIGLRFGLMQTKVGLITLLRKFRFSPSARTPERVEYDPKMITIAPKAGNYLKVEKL
T1 sequence (Q86QH5 1-679 partner): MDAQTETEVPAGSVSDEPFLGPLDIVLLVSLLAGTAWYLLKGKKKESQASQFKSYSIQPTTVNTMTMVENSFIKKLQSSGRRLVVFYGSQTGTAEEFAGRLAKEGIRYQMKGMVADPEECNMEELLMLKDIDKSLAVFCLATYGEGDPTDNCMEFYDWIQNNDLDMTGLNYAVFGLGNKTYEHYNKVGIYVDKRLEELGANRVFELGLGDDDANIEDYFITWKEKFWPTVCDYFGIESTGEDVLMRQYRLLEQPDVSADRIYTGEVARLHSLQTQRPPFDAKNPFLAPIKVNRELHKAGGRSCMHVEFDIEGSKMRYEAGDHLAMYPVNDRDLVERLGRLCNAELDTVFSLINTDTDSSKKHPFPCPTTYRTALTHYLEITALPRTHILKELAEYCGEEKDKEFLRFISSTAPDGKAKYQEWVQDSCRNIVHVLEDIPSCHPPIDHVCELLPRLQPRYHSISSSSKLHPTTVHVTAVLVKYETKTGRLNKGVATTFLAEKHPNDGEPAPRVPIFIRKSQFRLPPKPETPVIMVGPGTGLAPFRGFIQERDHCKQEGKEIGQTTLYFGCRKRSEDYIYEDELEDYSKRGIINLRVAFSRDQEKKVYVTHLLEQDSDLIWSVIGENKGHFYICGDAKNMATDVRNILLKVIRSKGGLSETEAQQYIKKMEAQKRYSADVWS
Put plainly: inhibition of diethoxyfluorescein (DEF) fluorescent probe metabolism. The format is biochemical.

Data set [2] concerns the target T2, CYP9K1 (Anopheles gambiae, UniProt Q8T633).
T2 construct: recombinant, pCWori+ vector, E. coli membranes co-expressing An. gambiae CPR; cytochrome b5 added; with NADPH--cytochrome P450 reductase
T2 sequence (Q8T633 1-531): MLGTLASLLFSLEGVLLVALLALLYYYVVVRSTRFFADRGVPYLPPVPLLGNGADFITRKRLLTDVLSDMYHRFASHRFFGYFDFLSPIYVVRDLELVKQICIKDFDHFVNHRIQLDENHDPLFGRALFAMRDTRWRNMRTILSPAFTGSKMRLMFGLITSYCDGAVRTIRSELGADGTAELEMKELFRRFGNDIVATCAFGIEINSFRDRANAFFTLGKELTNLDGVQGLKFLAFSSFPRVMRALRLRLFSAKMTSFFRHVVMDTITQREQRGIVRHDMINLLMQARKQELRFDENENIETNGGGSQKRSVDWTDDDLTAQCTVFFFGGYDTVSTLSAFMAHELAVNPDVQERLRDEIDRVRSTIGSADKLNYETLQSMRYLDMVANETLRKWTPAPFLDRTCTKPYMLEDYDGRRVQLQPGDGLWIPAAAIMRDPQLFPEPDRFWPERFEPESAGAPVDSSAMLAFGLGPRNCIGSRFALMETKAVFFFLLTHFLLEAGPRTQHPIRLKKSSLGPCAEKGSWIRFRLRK
T2 sequence (Q86QH5 1-679 partner): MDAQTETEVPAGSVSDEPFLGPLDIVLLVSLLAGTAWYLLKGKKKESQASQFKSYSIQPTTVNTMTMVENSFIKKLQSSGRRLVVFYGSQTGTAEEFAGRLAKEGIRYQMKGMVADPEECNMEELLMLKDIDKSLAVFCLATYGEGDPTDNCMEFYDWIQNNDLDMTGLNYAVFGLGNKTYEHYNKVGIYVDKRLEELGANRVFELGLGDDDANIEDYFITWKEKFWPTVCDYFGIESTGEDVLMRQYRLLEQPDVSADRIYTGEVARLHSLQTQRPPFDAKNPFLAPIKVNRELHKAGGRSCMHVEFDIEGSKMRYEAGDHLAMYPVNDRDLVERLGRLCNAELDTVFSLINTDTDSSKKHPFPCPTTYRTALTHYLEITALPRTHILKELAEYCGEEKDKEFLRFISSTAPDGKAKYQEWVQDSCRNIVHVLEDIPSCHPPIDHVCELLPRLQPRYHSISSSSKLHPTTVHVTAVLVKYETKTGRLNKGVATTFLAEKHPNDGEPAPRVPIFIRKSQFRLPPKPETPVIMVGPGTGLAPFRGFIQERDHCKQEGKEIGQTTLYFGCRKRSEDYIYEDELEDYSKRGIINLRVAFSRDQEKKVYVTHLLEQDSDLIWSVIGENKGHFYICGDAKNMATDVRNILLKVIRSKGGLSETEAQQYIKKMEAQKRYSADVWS
Put plainly: inhibition of chlorfenapyr depletion, HPLC. Format: biochemical.

Substrate in data set [3]: CCOCn1c(-c2ccc(Cl)cc2)c(C#N)c(Br)c1C(F)(F)F
The data set can be described thus: tralopyril formation by HPLC, Michaelis-Menten fit. The note with it: NADPH regeneration system, 0.8 µM cytochrome b5, 50 mM potassium phosphate pH 7.4, recombinant E. coli membranes. The format is biochemical, Anopheles gambiae.

In data set [1], `CCOCn1c(-c2ccc(Cl)cc2)c(C#N)c(Br)c1C(F)(F)F` [chlorfenapyr] had an IC50 of 30.4 µM.

Turning to `CC1(C)C(C=C(Cl)Cl)C1C(=O)OC(C#N)c1cccc(Oc2ccccc2)c1` (stereo not drawn) [α-cypermethrin], the IC50 in data set [1] amounted to 16.7 µM. This molecule yielded an inhibition at 10 µM in data set [2] of 56.8%.

B1: CYP6P3 (Anopheles gambiae) (protein)
chain: MELINAVLAAFIFAVSIVYLFIRNKHNYWKDNGFPYAPNPHFLFGHAKGQAQTRHGADIHQELYRYFKQRGERYGGISQFIVPSVLVIDPELAKTILVKDFNVFHDHGVFTNAKDDPLTGHLFALEGQPWRLMRQKLTPTFTSGRMKQMFGTIRDVGLELEKCMEQSYNQPEVEMKDILGRFTTDVIGTCAFGIECNTLKTTDSEFRKYGNKAFELNTMIMMKTFLASSYPTLVRNLHMKITYNDVERFFLDIVKETVDYREANNVKRNDFMNLMLQIKNKGKLDDSDDGSLGKGEVGMTQNELAAQAFVFFLAGFETSSTTQSFCLYELAKNPDIQERLREEINRAIAENGGEVTYDVVMNIKYLDNVIDETLRKYPPVESLTRVPSVDYLIPGTKHVIPKRTLVQIPAYAIQRDPDHYPDPERFNPDRFLPEEVKKRHPFTFIPFGEGPRICIGLRFGLMQTKVGLITLLRKFRFSPSARTPERVEYDPKMITIAPKAGNYLKVEKL
notes: recombinant, pCWori+ vector, E. coli membranes co-expressing An. gambiae CPR; cytochrome b5 added in metabolism assays; with NADPH--cytochrome P450 reductase
On to B1, for which, in data set [3], the Km turned out to be 16.32 µM and the kcat turned out to be 0.0285 s⁻¹.

B2: CYP9K1 (Anopheles gambiae) (protein)
chain: MLGTLASLLFSLEGVLLVALLALLYYYVVVRSTRFFADRGVPYLPPVPLLGNGADFITRKRLLTDVLSDMYHRFASHRFFGYFDFLSPIYVVRDLELVKQICIKDFDHFVNHRIQLDENHDPLFGRALFAMRDTRWRNMRTILSPAFTGSKMRLMFGLITSYCDGAVRTIRSELGADGTAELEMKELFRRFGNDIVATCAFGIEINSFRDRANAFFTLGKELTNLDGVQGLKFLAFSSFPRVMRALRLRLFSAKMTSFFRHVVMDTITQREQRGIVRHDMINLLMQARKQELRFDENENIETNGGGSQKRSVDWTDDDLTAQCTVFFFGGYDTVSTLSAFMAHELAVNPDVQERLRDEIDRVRSTIGSADKLNYETLQSMRYLDMVANETLRKWTPAPFLDRTCTKPYMLEDYDGRRVQLQPGDGLWIPAAAIMRDPQLFPEPDRFWPERFEPESAGAPVDSSAMLAFGLGPRNCIGSRFALMETKAVFFFLLTHFLLEAGPRTQHPIRLKKSSLGPCAEKGSWIRFRLRK
notes: recombinant, pCWori+ vector, E. coli membranes co-expressing An. gambiae CPR; cytochrome b5 added; with NADPH--cytochrome P450 reductase
For the molecule B2, in data set [3], the Michaelis-Menten constant (Km) was determined as 10.13 µM and the catalytic constant (kcat) is 0.112 s⁻¹.

As a reminder, the IC50 is the concentration that inhibits the measured activity by half. One may read the inhibition as the percentage by which the read-out fell short of the control. As usually defined, the Km is the substrate concentration at which the rate is half of its maximum. One may read the kcat as the maximal rate divided by the concentration of active sites.
